Test results: publication PMC7164768

Target: Thermotoga maritima SecYEG complex, Se-Met derivatized (Thermotoga maritima) (UniProt Q9X1I9)
Test: crystal structure

Thermotoga maritima SecYEG complex, Se-Met derivatized (Thermotoga maritima), sequence (Q9X1I9 whole entry, chain 1 of 3): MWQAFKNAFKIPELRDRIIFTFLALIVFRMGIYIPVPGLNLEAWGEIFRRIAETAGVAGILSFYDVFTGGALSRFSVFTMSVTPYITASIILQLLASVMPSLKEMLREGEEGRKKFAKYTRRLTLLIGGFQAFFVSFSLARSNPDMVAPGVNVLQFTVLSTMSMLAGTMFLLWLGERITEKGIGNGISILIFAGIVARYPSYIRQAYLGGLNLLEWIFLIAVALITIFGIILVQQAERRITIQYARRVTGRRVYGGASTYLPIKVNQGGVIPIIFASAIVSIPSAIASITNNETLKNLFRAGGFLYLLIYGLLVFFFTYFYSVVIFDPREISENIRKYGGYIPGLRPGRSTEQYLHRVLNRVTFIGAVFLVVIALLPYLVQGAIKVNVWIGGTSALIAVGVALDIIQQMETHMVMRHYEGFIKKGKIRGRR
Thermotoga maritima SecYEG complex, Se-Met derivatized (Thermotoga maritima), sequence (P35874 whole entry, chain 2 of 3, further chain): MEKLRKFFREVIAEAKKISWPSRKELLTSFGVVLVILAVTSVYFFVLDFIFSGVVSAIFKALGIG
Thermotoga maritima SecYEG complex, Se-Met derivatized (Thermotoga maritima), sequence (Q9WYU9 whole entry, chain 3 of 3, further chain): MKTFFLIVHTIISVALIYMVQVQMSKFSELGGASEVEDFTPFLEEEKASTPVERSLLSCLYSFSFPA

“Thermotoga maritima SecA (from UniProt Q9X1R4 1-871) (enzyme)” was tested. Which stoichiometry N (SecA per SecY complex) did it give?
The stoichiometry N (SecA per SecY complex) was 1.
